Here are results for two proteins from patent US20100305025.

The data set addresses T1, human placental RNase inhibitor, P13489.
T1 chain: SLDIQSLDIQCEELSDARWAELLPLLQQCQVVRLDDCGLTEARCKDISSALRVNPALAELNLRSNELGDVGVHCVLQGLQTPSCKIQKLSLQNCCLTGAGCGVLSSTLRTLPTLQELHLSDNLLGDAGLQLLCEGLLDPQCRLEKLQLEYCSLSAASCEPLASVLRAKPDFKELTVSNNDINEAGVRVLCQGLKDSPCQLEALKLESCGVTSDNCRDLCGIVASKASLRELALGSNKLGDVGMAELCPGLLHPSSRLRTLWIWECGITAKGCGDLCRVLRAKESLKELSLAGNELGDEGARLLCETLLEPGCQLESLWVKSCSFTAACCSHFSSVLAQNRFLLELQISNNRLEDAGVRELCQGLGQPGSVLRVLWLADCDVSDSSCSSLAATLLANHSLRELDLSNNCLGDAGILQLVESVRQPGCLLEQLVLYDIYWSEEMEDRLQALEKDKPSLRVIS

B1: recombinant carboxy-terminal FLAG-tagged chicken (Gallus gallus) leukocyte RNase A-2 (protein)
chain: VPTYQDFLYKHMDFPKTSFPSNAAYCNVMMVRRGMTAHGRCKSFNTFVHTDPRNLNTLCINQPDQALRTTRRHFRITDCKLIRSHPTCRYSGNQFNRRVRVGCRGGLPVHLDGTSP
In the case of B1, the “RNase activity (yeast tRNA substrate)” value is listed as “completely inhibited RNase activity”.

B2: recombinant carboxy-terminal FLAG-tagged chicken (Gallus gallus) leukocyte RNase A-1 (protein)
chain: VPTYQDFLRTHVDFPKTSFPNIAAYCNVMMVRRGINVHGRCKSLNTFVHTDPRNLNTLCINQPNRALRTTQQQLPVTDCKLIRSHPTCSYTGNQFNHRVRVGCWGGLPVHLDGTFP
Turning to B2, the “RNase activity (yeast tRNA substrate)” value is reported as “completely inhibited RNase activity”.
